In assay [1] the target is human IL-15 (hIL-15+hIL-15Rα complex), tag on IL-15Rα not stated (human (homo sapiens)) (UniProt P40933). Briefly: cell-based or functional assay.
Assay [2] has as its target human IL-15 (hIL-15+hIL-15Rα-His complex) (human (homo sapiens)) (UniProt P40933). Briefly: cell-based or functional assay.
Assay [3] addresses cynomolgus monkey IL-15 (mfIL-15+mfIL-15Rα complex), tag on IL-15Rα not stated (cynomolgus monkey (Macaca fascicularis)) (UniProt P40221). Briefly: SPR (Biacore T200), as in Example 2.2. For orientation: In SPR one partner is held on a chip, and binding of the other changes the refractive index at the surface.
Assay [4] addresses human IL-15 (hIL-15+hIL-15Rα complex), tag on IL-15Rα not stated (human (homo sapiens)) (UniProt P40933). Briefly: SPR (Biacore T200), as in Example 2.2.
The target is the same in assay [5]. Briefly: SPR (Biacore T200), as in Example 2.2. This is another data set of the same source.
The target is the same in assay [6]. Briefly: SPR (Biacore T200), antibody captured by anti-human IgG Fc, complex as analyte, 1:1 model.
For assay [7], the target named is T1, human IL-15 (hIL-15+hIL-15Rα complex), tag on IL-15Rα not stated (human (homo sapiens), UniProt P40933 49-162; Q13261 31-128).
T1 construct: Co-expressed complex (superagonist) of human IL-15 and human IL-15Rα made in HEK293 cells; also called human IL-15 (IL-15+IL-15Rα complex); IL-15+IL-15Rα complex
In words: SPR (Biacore T200), as in Example 2.2.

Assay [8] has as its target T1, human IL-15 (hIL-15+hIL-15Rα complex), …. In words: SPR (Biacore T200), as in Example 2.2. The source holds these as a separate data set.
For assay [9] the target is unchanged. Briefly: cell-based or functional assay.
Assay [10] deals with human IL-15 (hIL-15+hIL-15Rα-His complex) (human (homo sapiens), UniProt P40933 49-162; Q13261 31-128). Briefly: cell-based or functional assay.
Assay [11] has as its target T1, human IL-15 (hIL-15+hIL-15Rα complex), …. In words: SPR (Biacore T200), as in Example 2.2. This is another data set of the same source.
For assay [12] the target is unchanged. In words: SPR (Biacore T200), as in Example 2.2. This is another data set of the same source.
The target of assay [13] is T2, cynomolgus monkey IL-15 (mfIL-15+mfIL-15Rα complex), tag on IL-15Rα not stated (cynomolgus monkey (Macaca fascicularis), UniProt P40221 49-162; Q13261 31-128).
T2 construct: also called monkey IL-15+IL-15Rα superagonist
T2 chain 1: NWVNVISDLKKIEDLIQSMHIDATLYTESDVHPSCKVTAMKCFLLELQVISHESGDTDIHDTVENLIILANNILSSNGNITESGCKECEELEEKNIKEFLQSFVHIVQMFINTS
T2 chain 2: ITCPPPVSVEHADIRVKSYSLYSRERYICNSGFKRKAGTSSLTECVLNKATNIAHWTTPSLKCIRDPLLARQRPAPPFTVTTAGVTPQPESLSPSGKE
Briefly: SPR (Biacore T200), as in Example 2.2.

In assay [14] the target is T3, mouse IL-15 (mIL-15+mIL-15Rα-mFc1 complex) (mouse (Mus musculus), UniProt P48346 49-162).
T3 construct: also called mIL-15+mIL-15Rα-mFe1 complex
Briefly: ELISA, complex coated at 1 µg/mL, anti-human IgG-HRP detection. For orientation: ELISA stands for enzyme-linked immunosorbent assay.

For assay [15], the target named is T1, human IL-15 (hIL-15+hIL-15Rα complex), …. In words: SPR (Biacore T200), antibody captured by anti-human IgG Fc, complex as analyte, 1:1 model.
The target in assay [16] is cynomolgus monkey IL-15 (mfIL-15+mfIL-15Rα-His complex) (cynomolgus monkey (Macaca fascicularis), UniProt P40221 49-162 (Chlorocebus aethiops entry)). In words: ELISA, complex coated at 1 µg/mL, anti-human IgG-HRP detection.

Chain of human IL-15 (hIL-15+hIL-15Rα-His complex) (P40933 49-162 limits assumed, chain 1 of 2): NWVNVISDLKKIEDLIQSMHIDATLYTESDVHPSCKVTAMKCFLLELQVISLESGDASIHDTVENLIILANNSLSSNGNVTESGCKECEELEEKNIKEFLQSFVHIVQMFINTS
Chain of human IL-15 (hIL-15+hIL-15Rα-His complex) (Q13261 other isoform, or with tags, fused parts or gaps limits assumed, chain 2 of 2): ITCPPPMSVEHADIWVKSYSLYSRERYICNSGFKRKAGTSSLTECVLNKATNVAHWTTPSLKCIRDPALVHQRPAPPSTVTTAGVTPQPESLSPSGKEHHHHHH
T3 sequence (P48346 49-162 limits assumed, chain 1 of 2): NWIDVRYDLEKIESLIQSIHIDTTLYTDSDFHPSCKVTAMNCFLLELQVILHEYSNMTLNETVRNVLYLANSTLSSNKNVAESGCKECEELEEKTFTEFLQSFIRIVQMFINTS
T3 sequence (chain, as listed by the source limits assumed, chain 2 of 2): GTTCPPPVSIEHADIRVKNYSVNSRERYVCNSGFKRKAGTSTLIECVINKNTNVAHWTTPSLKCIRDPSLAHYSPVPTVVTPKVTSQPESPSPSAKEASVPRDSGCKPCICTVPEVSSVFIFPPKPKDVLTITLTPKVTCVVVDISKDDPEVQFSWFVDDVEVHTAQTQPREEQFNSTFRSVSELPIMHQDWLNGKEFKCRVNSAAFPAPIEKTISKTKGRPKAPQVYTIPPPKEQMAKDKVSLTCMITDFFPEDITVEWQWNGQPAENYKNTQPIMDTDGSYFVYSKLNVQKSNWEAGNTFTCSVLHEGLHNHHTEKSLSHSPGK

“anti-human IL-15 monoclonal antibody CALY-002” showed an IC50(nM), inhibition of IL-15-induced SEAP secretion by HEK-Blue IL-2 cells in [1] of 3.23 nM. The IC50(nM), inhibition of IL-15-driven proliferation of NK92 cells (Cell Titer-Glo) in assay [2] came out at 0.106 nM. Also, the Kd in assay [3] was found to be 0.148 nM; in assay [4], 0.201 nM; in assay [5] it was 0.337 nM; in [6], 0.239 nM. Moreover, the koff in assay [3] was found to be 0.000188 s⁻¹; in [4], 0.000207 s⁻¹; in [5] it was 0.000235 s⁻¹; in [6], 0.000319 s⁻¹. Besides, the on-rate (kon) is 1.27e+06 M⁻¹ s⁻¹ in assay [3], 1.03e+06 M⁻¹ s⁻¹ in assay [4], 697000 M⁻¹ s⁻¹ in assay [5] and 1.34e+06 M⁻¹ s⁻¹ in assay [6].

B1: mouse anti-human IL-15 monoclonal antibody R6E11 (antibody, V domains shown)
VH: EVKLKESGPSLVQPSQSLSITCTVSGFSLTTYAVHWVRQSPGKGLEWLGVIWGAGSTDYNAAFMSRLSITKDNSKSQVFFKMNSLQADDTAIYFCAKNGAYYVMDYWGQGTSVTVSS
VL: EIVLTQSPAIMSASPGEKVTITCSASSSVSYMHWFQQRPGTSPKLWIYSTSNLASGVPARFSGSGSGTSYSLTISRMEAEDAATYYCQQRSSYPLTFGAGTKLEIK
notes: Mouse variable regions from a mouse immune phage library
In assay [7], B1 registered a Kd of 0.689 nM, a koff of 0.000267 s⁻¹ and a kon of 387000 M⁻¹ s⁻¹. In assay [8], the affinity, expressed as Kd, was 0.983 nM; the koff is 0.000399 s⁻¹; the kon came out at 406000 M⁻¹ s⁻¹.

B2: anti-human IL-15 monoclonal antibody R1A3 (antibody, V domains shown)
VH: EVQLVQSGAEVKKPGESLKISCKVSGYFFTTYWIGWVRQMPGKGLEYMGIIYPGDSDTRYSPSFQGQVTISADKSISTAYLQWSSLKASDTAMYYCARGGHWNAFDFWGQGTLVTVSS
VL: EIVLTQSPGTLSLSPGERATLSCRASQSVSSSYLAWYQQKPGQAPRLLIYGASRRATGIPDRFSGSGSGTDFTLTISRLEPEDFAVYYCQQFDASQTFGQGTKLEISR
notes: Found from a fully human Fab phage library
For the molecule B2, the “IC50(nM), inhibition of IL-15-induced SEAP secretion by HEK-Blue IL-2 cells” value (from here on “IC50(nM), inhibition … by HEK-Blue IL-2 cells”) in [9] came out at 0.634 nM. For the same molecule, in [10], the “IC50(nM), inhibition of IL-15-driven proliferation of NK92 cells (Cell Titer-Glo)” value (shortened to “IC50(nM), inhibition … (Cell Titer-Glo)”) was found to be 0.126 nM. For the same molecule, the Kd in assay [11] is 0.352 nM; in assay [12], 0.612 nM; in assay [13], 0.722 nM; in assay [15], 0.381 nM. In addition, the koff in [11] amounted to 0.000548 s⁻¹; in assay [12], 0.00038 s⁻¹; in [13], 0.000398 s⁻¹; in assay [15] it was 0.000537 s⁻¹. Further, the kon in [11] was 1.56e+06 M⁻¹ s⁻¹; in [12], 621000 M⁻¹ s⁻¹; in assay [13] it was 552000 M⁻¹ s⁻¹; in [15], 1.41e+06 M⁻¹ s⁻¹. The binding result in [14] is reported as “no binding”.

B3: anti-human IL-15 monoclonal antibody AMG714 (antibody, V domains shown)
VH: EVQLVQSGAEVKKPGESLKISCKVSGYFFTTYWIGWVRQMPGKGLEYMGIIYPGDSDTRYSPSFQGQVTISADKSISTAYLQWSSLKASDTAMYYCARGGNWNCFDYWGQGTLVTVSS
VL: EIVLTQSPGTLSLSPGERATLSCRASQSVSSSYLAWYQQKPGQAPRLLIYGASRRATGIPDRFSGSGSGTDFTLTISRLEPEDFAVYYCQRYGSSHTFGQGTKLEISR
In [13], B3 came in with a Kd of 2.12 nM, an off-rate constant (koff) of 0.00124 s⁻¹ and a kon of 583000 M⁻¹ s⁻¹.

B4: anti-human IL-15 monoclonal antibody R26H10 (antibody, V domains shown)
VH: QVTLKESGPVLVKPTETLTLTCTVSGFSLTTYAVHWIRQPPGKALEWLGVIWGAGSTDYNPSFMSRLTISKDTSKSQVVLTMTNMDPVDTATYYCAKNAAYYVMDYWGQGTTVTVSS
VL: EIVLTQSPGTLSLSPGERATLSCRASQSVIYSYLAWYQQKPGQAPRLLIYAASKLASGIPDRFSGSGSGTDFTLTISRLEPEDFAVYYCQQRASYPLTFGQGTKVEIK
notes: Humanized mutant of R6E11 with a fully human light chain; captured by anti-human IgG (Fc) in SPR and detected with anti-human IgG in ELISA
Regarding B4, the “IC50(nM), inhibition … by HEK-Blue IL-2 cells” value in assay [9] was found to be 0.646 nM. Further, the “IC50(nM), inhibition … (Cell Titer-Glo)” value in [10] turned out to be 0.133 nM. Also, the values for the Kd in assay [8], in [12] and in [13] were 1.22 nM, 1.13 nM and 99.9 nM, respectively. Further, the koff is 0.000308 s⁻¹ in [8], 0.000236 s⁻¹ in assay [12] and 0.021 s⁻¹ in assay [13]. In addition, the kon in assay [8] was 252000 M⁻¹ s⁻¹; in assay [12], 208000 M⁻¹ s⁻¹; in assay [13], 210000 M⁻¹ s⁻¹. In addition, the figures for the binding result in [16] and in assay [14] were “binds” and “no binding”, respectively.

B5: anti-human IL-15 monoclonal antibody R4G4VH+R22F11VK (antibody, V domains shown)
VH: EVQLVQSGAEVKKPGESLKISCKVSGYFFTTYWIGWVRQMPGKGLEYMGIIYPGDSDTRYSPSFQGQVTISADKSISTAYLQWSSLKASDTAMYYCARGGHWNAFDIWGQGTLVTVSS
VL: EIVLTQSPGTLSLSPGERATLSCRASQSVIGSYLAWYQQKPGQAPRLLIYSASKLASGIPDRFSGSGSGTDFTLTISRLEPEDFAVYYCQQHYSTPGTFGQGTKVEIK
notes: Mutant of R1A3; it was captured by anti-human IgG (Fc) in SPR and detected with anti-human IgG in ELISA, so a human Fc is implied; also called R4G4VH+R22FVK
For B5, the “IC50(nM), inhibition … by HEK-Blue IL-2 cells” value in [9] is 0.312 nM. Besides, the “IC50(nM), inhibition … (Cell Titer-Glo)” value in assay [10] stood at 0.109 nM. Besides, the Kd was determined as 0.346 nM in [11], 0.435 nM in assay [12] and 0.448 nM in assay [13]. Further, the figures for the koff in assay [11], in assay [12] and in [13] were 0.00029 s⁻¹, 0.000196 s⁻¹ and 0.000172 s⁻¹, respectively. For the same molecule, the kon is 838000 M⁻¹ s⁻¹ in [11], 450000 M⁻¹ s⁻¹ in [12] and 384000 M⁻¹ s⁻¹ in assay [13]. Besides, the binding result in [16] is given as “binds”; in assay [14] it was “no binding”.

B6: anti-human IL-15 monoclonal antibody R2H2VH+R22F11VK (antibody, V domains shown)
VH: EVQLVQSGAEVKKPGESLKISCKVSGYFFTTYWIGWVRQMPGKGLEYMGIIYPGDSDTRYSPSFQGQVTISADKSISTAYLQWSSLKASDTAMYYCARGGHWNSFDTWGQGTLVTVSS
VL: EIVLTQSPGTLSLSPGERATLSCRASQSVIGSYLAWYQQKPGQAPRLLIYSASKLASGIPDRFSGSGSGTDFTLTISRLEPEDFAVYYCQQHYSTPGTFGQGTKVEIK
notes: Mutant of R1A3; it was captured by anti-human IgG (Fc) in SPR and detected with anti-human IgG in ELISA, so a human Fc is implied; also called R2H2VH+R22FVK
On to B6, for which the “IC50(nM), inhibition … by HEK-Blue IL-2 cells” value in assay [9] was found to be 0.397 nM. Moreover, in [10], the “IC50(nM), inhibition … (Cell Titer-Glo)” value was determined as 0.119 nM. Further, the values for the Kd in assay [11], in assay [12] and in [13] were 0.379 nM, 0.57 nM and 0.463 nM, respectively. In addition, the koff in assay [11] came to 0.000299 s⁻¹; in [12], 0.000204 s⁻¹; in assay [13], 0.000171 s⁻¹. Further, the kon in assay [11] amounted to 791000 M⁻¹ s⁻¹; in assay [12], 357000 M⁻¹ s⁻¹; in assay [13], 365000 M⁻¹ s⁻¹. In addition, the binding result in assay [16] was “binds”; in [14] it was “no binding”.

For orientation: Kd means the equilibrium constant for the complex coming apart. For orientation: koff means the rate constant with which the complex falls apart. For orientation: kon means a measure of how fast the partners come together.
